Among the data in patent publication US20130309230A1 (published 2013) are Kd values, retold here.

For test [1], the target named is AA, + MMP-9. Nature of the test: SPR; + MMP-9 (activated AA). In general terms: In SPR one partner is held on a chip, and binding of the other changes the refractive index at the surface.
Test [2] deals with AA, - MMP-9. Nature of the test: SPR; - MMP-9 (uncleaved, masked AA).

B1: VEGF (ligand)
chain: APMAEGGGQNHHEVVKFMDVYQRSYCHPIETLVDIFQEYPDEIEYIFKPSCVPLMRCGGCCNDEGLECVPTEESNITMQIMRIKPHQGQHIGEMSFLQHNKCECRPKKDRARQENPCGPCSERRKHLFVQDPQTCKCSCKNTDSRCKARQLELNERTCRCDKPRR
Usually Kd stands for the equilibrium constant for the complex coming apart. As to B1, the dissociation constant Kd in test [1] is 0.35 nM; in test [2], greater than 200 nM.
